In the RNAGym collection of RNA variant scans (doi:10.7554/elife.80360):

B1: CPEB3 Ribozyme (parent)
chain: GGGGGCCACAGCAGAAGCGUUCACGUCGCGGCCCCUGUCAGAUUCUGGUGAAUCUGCGAAUUCUGCUGU

Variants of: B1
Assay: self-cleavage, relative activity (ratio to wild type); higher = more cleavage; co-transcriptional

| Variant | self-cleavage |
| --- | --- |
| A10G G47U | 0.919 |
| A10U G50U | 0.978 |
| G11U U21C | 0.541 |
| G11U U21G | 0.196 |
| A10G U67C | 0.967 |
| C12A C29A | 0.121 |
| G11U G30U | 0.263 |
| G11A G14U | 0.126 |
| G11C C12G | 0.211 |
| G11C C12U | 0.452 |
| G11A G48A | 0.906 |
| C12A G30C | 0.194 |
| G11U G47U | 0.941 |
| C12A G25U | 0.1 |
| C12A G25A | 0.155 |
| A10G U46A | 0.91 |
| C12A A60C | 0.264 |
| G11U G50A | 0.896 |
| G11U G31A | 0.746 |
| G11U U69C | 1.05 |
| G11A C34A | 0.715 |
| G11A C34G | 0.695 |
| C12A | 0.806 |
| G11U U38G | 0.178 |

| Variant | self-cleavage |
| --- | --- |
| G11U U38A | 0.687 |
| G11A G65C | 0.557 |
| C12A C34U | 0.834 |
| G11C A59G | 0.718 |
| A10G C18U | 0.264 |
| A10G C18A | 0.0954 |
| A10G C18G | 0.0572 |
| A10G C32U | 0.939 |
| A10G C32A | 0.847 |
| A10U C63U | 0.969 |
| C12A A23C | 0.6 |
| G11A C66G | 0.917 |
| G11A C66A | 0.818 |
| G11U C32A | 0.773 |
| G11C C54A | 0.252 |
| C12A C54U | 0.688 |
| A10G U64G | 0.398 |
| G11C G30U | 0.225 |
| G11A U55C | 0.493 |
| G11A U49C | 0.903 |
| A10U U44A | 0.967 |
| A10U G11C | 0.892 |
| A10U G11A | 0.873 |
| G11C U38C | 0.7 |

| Variant | self-cleavage |
| --- | --- |
| A10G C22A | 0.141 |
| C12A C63U | 0.364 |
| C12A C63A | 0.336 |
| G11A C35G | 0.352 |
| A10G C34U | 0.982 |
| G11A U62G | 0.331 |
| A10G C12G | 0.742 |
| A10G C12A | 0.356 |
| A10G C12U | 0.948 |
| A10U G14U | 0.654 |
| A10U G30U | 0.733 |
| G11A G37U | 0.156 |
| C12A A16U | 0.27 |
| A10G G14C | 0.0631 |
| G11U A42U | 0.581 |
| C12A C33U | 0.671 |
| G11C C66G | 0.943 |
| G11C C66U | 0.939 |
| A10G U20A | 0.0584 |
| A10G A60U | 0.221 |
| A10G A60C | 0.176 |
| A10U G17A | 0.547 |
| G11U G28A | 0.125 |
| A10U G25A | 0.171 |

| Variant | self-cleavage |
| --- | --- |
| G11A A15C | 0.849 |
| A10G G41C | 0.326 |
| A10G G41A | 0.37 |
| G11A U67A | 0.934 |
| C12A G28A | 0.13 |
| G11C G65A | 0.559 |
| G11C C39U | 0.399 |
| G11A C32U | 0.95 |
| G11C C57A | 0.252 |
| G11C A15G | 0.627 |
| G11C U55A | 0.271 |
| G11C U55G | 0.165 |
| A10C U67A | 1.02 |
| A10G G65A | 0.337 |
| A10G G65U | 0.303 |
| A10U U26G | 0.994 |
| A10U U43G | 0.831 |
| A10U U43A | 0.941 |
| A10U U43C | 0.975 |
| C12A C18A | 0.139 |
| A10G G17C | 0.106 |
| A10G C35U | 0.892 |
| A10G C35G | 0.496 |
| A10G C35A | 0.197 |

| Variant | self-cleavage |
| --- | --- |
| G11U U61C | 0.271 |
| G11U A15C | 0.531 |
| G11U A15G | 0.779 |
| G11C A13C | 0.175 |
| G11C A13U | 0.209 |
| G11C A13G | 0.558 |
| G11C U69G | 0.97 |
| G11C U69C | 1.01 |
| G11C U69A | 0.921 |
| A10U U67G | 1.01 |
| A10U U67A | 0.997 |
| A10G A40U | 0.301 |
| A10U G48C | 1.03 |
| A10U G48A | 1.02 |
| A10U G65A | 0.842 |
| A10U G65U | 0.796 |
| A10U C18A | 0.222 |
| A10U C18U | 0.883 |
| G11U C24A | 0.308 |
| A10U C35A | 0.245 |
| A10U C35G | 0.64 |
| G11A A60C | 0.205 |
| C12A C27G | 0.171 |
| A10U G41C | 0.859 |

| Variant | self-cleavage |
| --- | --- |
| G11U A59U | 0.395 |
| G11U A59C | 0.35 |
| A10G C45G | 0.839 |
| C12A A42U | 0.402 |
| G11A U26C | 0.863 |
| G11A U26G | 0.734 |
| G11C C22G | 0.18 |
| A10U C22A | 0.208 |
| A10G U62C | 0.376 |
| G11U A60U | 0.281 |
| G11U A60G | 0.497 |
| G11U A60C | 0.234 |
| A10U C66A | 0.845 |
| A10U C66G | 0.924 |
| A10U A59G | 0.968 |
| G11A C57G | 0.262 |
| G11U G25C | 0.0857 |
| G11C C18G | 0.0784 |
| A10U C45G | 0.949 |
| G11U A52U | 0.851 |
| G11U A52C | 0.761 |
| G11U G68A | 0.932 |
| A10U C34U | 0.985 |
| A10U U62A | 0.882 |

| Variant | self-cleavage |
| --- | --- |
| A10U U62C | 0.757 |
| A10G C27U | 0.613 |
| G11C U61C | 0.203 |
| A10G A13G | 0.233 |
| A10G A13U | 0.13 |
| C12A A13U | 0.15 |
| G11A G25A | 0.126 |
| G11C C45G | 0.767 |
| G11U C35A | 0.16 |
| G11U C54U | 0.819 |
| G11U C54A | 0.361 |
| G11U C54G | 0.412 |
| A10G C33U | 0.953 |
| A10G C33G | 0.854 |
| G11U G41C | 0.197 |
| A10U G58A | 0.975 |
| A10U A15C | 0.746 |
| G11C G37U | 0.165 |
| A10G G25U | 0.132 |
| A10G G25A | 0.0673 |
| G11C U53G | 0.415 |
| G11C U64G | 0.435 |
| G11C G41C | 0.257 |
